For this assay, the target named is CD24 (human) (UniProt P25063). The experiment in a line: cell-based or functional assay.

We go through 1 substance from patent publication US20250263500A1.

Sequence of CD24 (human) (P25063 27-59): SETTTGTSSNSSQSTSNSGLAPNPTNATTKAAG

Regarding negative control antibody (mouse IgG), the Phagocytosis rate % (A549 tumor cells by human PBMC-derived M2 macrophages, antibody 5 µg/ml) turned out to be 2.7% and the Phagocytosis rate (%) (MCF-7 tumor cells by human PBMC-derived M2 macrophages, antibody 5 µg/ml) turned out to be 1.3%.
